Reference: paper PMC9825591

Legend:
[1] = target: EPYC1-GFP (Chlamydomonas reinhardtii); assay: fluorescence correlation spectroscopy (FCS); 10 nM EPYC1-GFP with varying concentrations of unlabeled Rubisco in solution, one-phase region (no condensates); 20 mM Tris-HCl, 50 mM NaCl, pH 8.0; PEI-g-PEG coated coverslip; EPYC1-GFP diffusion coefficient against Rubisco concentration fitted with a quadratic binding equation; the authors consider the Kd an upper bound
[2] = target: EPYC1-GFP (Chlamydomonas reinhardtii); assay: fluorescence correlation spectroscopy (FCS); dilute phase of a phase-separated mixture, alongside condensates: EPYC1-GFP fixed at 20 nM, unlabeled EPYC1 1 to 4 μM, Rubisco 0.05 to 2 μM; laser aimed at a region away from condensates

Kd [1]: 29 nM
Rubisco holoenzymes per EPYC1-Rubisco complex [1]: 1
Rubisco holoenzymes per EPYC1-Rubisco complex [2]: 1
Substance: Ribulose-1,5-bisphosphate carboxylase/oxygenase (Rubisco) holoenzyme, wildtype (from UniProt P00877 3-475; P00873 46-185) (complex)
